The text below walks through data of article PMC3861047, “Role of Tomato Lipoxygenase D in Wound-Induced Jasmonate Biosynthesis and Plant Immunity to Insect Herbivores”.

The target in the data set is MBP-SlMYC2 (Solanum lycopersicum, UniProt A0A3Q7HRZ6 1-689). The data set is described as follows: EMSA; LightShift Chemiluminescent EMSA kit (Thermo Scientific), acrylamide gel; buffer, salt, pH and temperature not given. The following applies: protein: recombinant; tags: N-terminal MBP (pMAL-c2); chain copies: 2; label: biotin (3' end per Methods); blunt. (Mobility shift assays separate free from complexed probe on a gel.)
Chain of MBP-SlMYC2 (A0A3Q7HRZ6 whole entry): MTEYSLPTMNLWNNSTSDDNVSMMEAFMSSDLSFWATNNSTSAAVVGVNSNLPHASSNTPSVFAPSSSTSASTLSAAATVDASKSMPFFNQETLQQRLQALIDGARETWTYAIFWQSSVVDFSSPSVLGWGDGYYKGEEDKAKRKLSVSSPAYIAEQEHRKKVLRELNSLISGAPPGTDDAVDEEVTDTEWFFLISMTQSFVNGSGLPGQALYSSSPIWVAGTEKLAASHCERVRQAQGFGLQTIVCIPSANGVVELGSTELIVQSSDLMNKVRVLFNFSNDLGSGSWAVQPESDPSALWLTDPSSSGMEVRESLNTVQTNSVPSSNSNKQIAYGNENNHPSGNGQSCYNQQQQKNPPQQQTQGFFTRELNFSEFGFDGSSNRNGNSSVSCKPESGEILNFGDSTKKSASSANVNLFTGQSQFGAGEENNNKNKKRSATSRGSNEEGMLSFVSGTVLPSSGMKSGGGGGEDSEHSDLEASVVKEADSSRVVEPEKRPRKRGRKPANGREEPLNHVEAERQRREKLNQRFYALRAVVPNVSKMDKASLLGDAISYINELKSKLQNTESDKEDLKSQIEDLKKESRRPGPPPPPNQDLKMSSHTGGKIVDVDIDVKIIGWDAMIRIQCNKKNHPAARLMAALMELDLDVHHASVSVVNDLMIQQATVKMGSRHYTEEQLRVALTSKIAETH

B1: TomLoxDpro probe-369 (dsDNA)
DNA 1: TCGGTTTGACTAAATTCCACCATGTGTAAAGCTTGCACTAAAATGAAACC
DNA 2: GGTTTCATTTTAGTGCAAGCTTTACACATGGTGGAATTTAGTCAAACCGA
Consider B1, for which the binding result is on record as “binds”.
